Data set [1] relates to HeLa Kyoto. As to the kind of experiment: solubility in G1/S (NP-40 vs SDS abundance) (log2 ratio); higher = more soluble. To be noted: cell cycle stage: G1/S.
For data set [2], the system named is HeLa Kyoto. Description: melting temperature (median over replicates), in situ; higher = more thermally stable.
Data set [3] has as its system HeLa Kyoto. As to the kind of experiment: solubility change mitosis vs G1/S (difference of NP-40 vs SDS log2 ratios) (log2 ratio difference); higher = more soluble in mitosis.
The subject of data set [4] is HeLa Kyoto. As to the kind of experiment: thermal stability score vs G1/S (z-score of summed log2 fold changes over temperatures); higher = more thermally stable than in G1/S.
Setting [5] is: cell cycle stage: early G1 (4.5 h after nocodazole release).
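For melting temperature (median over replicates), in situ in this document: HeLa Kyoto cells synchronized by double thymidine or nocodazole block, proteins quantified by TMT10plex mass spectrometry, three independent biological replicates.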
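For solubility change mitosis vs G1/S (difference of NP-40 vs SDS log2 ratios) in this document: synchronized HeLa Kyoto cells (double thymidine block for G1/S, nocodazole release for mitosis), protein amounts in NP-40 versus SDS lysates quantified by mass spectrometry, three biological replicates.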
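For solubility in G1/S (NP-40 vs SDS abundance) in this document: HeLa Kyoto cells arrested at G1/S by double thymidine block, proteins quantified by TMT10plex mass spectrometry in mild NP-40 versus SDS extracts, three biological replicates.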
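For thermal stability score vs G1/S (z-score of summed log2 fold changes over temperatures) in this document: synchronized HeLa Kyoto cells, proteins quantified by TMT10plex mass spectrometry, three biological replicates, mitosis taken 0.5 h after nocodazole release, G1/S directly after double thymidine block.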

For the substance PIK3C2A, the “solubility in G1/S (log2)” value in the data set with HeLa Kyoto [1] was -0.334. Also, the melting temperature in the data set on HeLa Kyoto [2] (cell cycle stage: G1/S) was 49.3 °C; with HeLa Kyoto [2] (cell cycle stage: mitosis), 48.6 °C. Besides, the “solubility change mitosis (log2)” value with HeLa Kyoto [3] was -0.063. The thermal stability score with HeLa Kyoto [4] (setting [5]) was -0.0214; in the data set on HeLa Kyoto [4] (cell cycle stage: mitosis), 0.282.

On to “MADSGLLLKRGSCRSTWLRVRKARPQLILSRRPRRRLGSLRWCGRRRLRWRLLQAQASGVDWREGARQVSRAAAARRPNTATPSPIPSPTPASEPESEPELESASSCHRPLLIPPVRPVGPGRALLLLPVEQGFTFSGICRVTCLYGQVQVFGFTISQGQPAQDIFSVYTHSCLSIHALHYSQPEKSKKELKREARNLLKSHLNLDDRRWSMQNFSPQCSIVLLEHLKTATVNFITSYPGSSYIFVQESPTPQIKPEYLALRSVGIRREKKRKGLQLTESTLSALEELVNVSCEEVDGCPVILVCGSQDVGKSTFNRYLINHLLNSLPCVDYLECDLGQTEFTPPGCISLLNITEPVLGPPFTHLRTPQKMVYYGKPSCKNNYENYIDIVKYVFSAYKRESPLIVNTMGWVSDQGLLLLIDLIRLLSPSHVVQFRSDHSKYMPDLTPQYVDDMDGLYTKSKTKMRNRRFRLAAFADALEFADEEKESPVEFTGHKLIGVYTDFAFRITPRNRESHNKILRDLSILSYLSQLQPPMPKPLSPLHSLTPYQVPFNAVALRITHSDVAPTHILYAVNASWVGLCKIQDDVRGYTNGPILLAQTPICDCLGFGICRGIDMEKRLYHILTPVPPEELRTVNCLLVGAIAIPHCVLKCQRGIEGTVPYVTTDYNFKLPGASEKIGAREPEEAHKEKPYRRPKFCRKMK [NOL9]”, for which the “solubility in G1/S (log2)” value with HeLa Kyoto [1] was -1.82. This substance came in with a melting temperature with HeLa Kyoto [2] (cell cycle stage: mitosis) of 51.3 °C. The “solubility change mitosis (log2)” value with HeLa Kyoto [3] stood at 0.92. The thermal stability score in the data set on HeLa Kyoto [4] (setting [5]) was determined as 1.99; in the data set on HeLa Kyoto [4] (cell cycle stage: mitosis) it was 1.53.

With “MSGFLEELLGEKLVTGGGEEVDVHSLGARGISLLGLYFGCSLSAPCAQLSASLAAFYGRLRGDAAAGPGPGAGAGAAAEPEPRRRLEIVFVSSDQDQRQWQDFVRDMPWLALPYKEKHRKLKLWNKYRISNIPSLIFLDATTGKVVCRNGLLVIRDDPEGLEFPWGPKPFREVIAGPLLRNNGQSLESSSLEGSHVGVYFSAHWCPPCRSLTRVLVESYRKIKEAGQNFEIIFVSADRSEESFKQYFSEMPWLAVPYTDEARRSRLNRLYGIQGIPTLIMLDPQGEVITRQGRVEVLNDEDCREFPWHPKPVLELSDSNAAQLNEGPCLVLFVDSEDDGESEAAKQLIQPIAEKIIAKYKAKEEEAPLLFFVAGEDDMTDSLRDYTNLPEAAPLLTILDMSARAKYVMDVEEITPAIVEAFVNDFLAEKLKPEPI [NXN]”, the “solubility in G1/S (log2)” value in the data set on HeLa Kyoto [1] was determined as 0.175. The melting temperature in the data set on HeLa Kyoto [2] (cell cycle stage: G1/S) and with HeLa Kyoto [2] (cell cycle stage: mitosis) was 51 °C each time. Moreover, the “solubility change mitosis (log2)” value in the data set with HeLa Kyoto [3] was -0.204. The results for the thermal stability score in the data set on HeLa Kyoto [4] (setting [5]) and with HeLa Kyoto [4] (cell cycle stage: mitosis) were 1.06 and 1.73, respectively.

Regarding SUMF2, the “solubility in G1/S (log2)” value in the data set on HeLa Kyoto [1] is 0.289. The results for the melting temperature in the data set on HeLa Kyoto [2] (cell cycle stage: G1/S) and with HeLa Kyoto [2] (cell cycle stage: mitosis) were 52.9 °C and 54.7 °C, respectively. The “solubility change mitosis (log2)” value in the data set on HeLa Kyoto [3] came to 0.00354. In addition, the thermal stability score worked out at 4.15 in the data set with HeLa Kyoto [4] (setting [5]) and 3.23 in the data set with HeLa Kyoto [4] (cell cycle stage: mitosis).

As for “MLKKFDKKDEESGGGSNPFQHLEKSAVLQEARVFNETPINPRKCAHILTKILYLINQGEHLGTTEATEAFFAMTKLFQSNDPTLRRMCYLTIKEMSCIAEDVIIVTSSLTKDMTGKEDNYRGPAVRALCQITDSTMLQAIERYMKQAIVDKVPSVSSSALVSSLHLLKCSFDVVKRWVNEAQEAASSDNIMVQYHALGLLYHVRKNDRLAVNKMISKVTRHGLKSPFAYCMMIRVASKQLEEEDGSRDSPLFDFIESCLRNKHEMVVYEAASAIVNLPGCSAKELAPAVSVLQLFCSSPKAALRYAAVRTLNKVAMKHPSAVTACNLDLENLVTDSNRSIATLAITTLLKTGSESSIDRLMKQISSFMSEISDEFKVVVVQAISALCQKYPRKHAVLMNFLFTMLREEGGFEYKRAIVDCIISIIEENSESKETGLSHLCEFIEDCEFTVLATRILHLLGQEGPKTTNPSKYIRFIYNRVVLEHEEVRAGAVSALAKFGAQNEEMLPSILVLLKRCVMDDDNEVRDRATFYLNVLEQKQKALNAGYILNGLTVSIPGLERALQQYTLEPSEKPFDLKSVPLATAPMAEQRTESTPITAVKQPEKVAATRQEIFQEQLAAVPEFRGLGPLFKSSPEPVALTESETEYVIRCTKHTFTNHMVFQFDCTNTLNDQTLENVTVQMEPTEAYEVLCYVPARSLPYNQPGTCYTLVALPKEDPTAVACTFSCMMKFTVKDCDPTTGETDDEGYEDEYVLEDLEVTVADHIQKVMKLNFEAAWDEVGDEFEKEETFTLSTIKTLEEAVGNIVKFLGMHPCERSDKVPDNKNTHTLLLAGVFRGGHDILVRSRLLLLDTVTMQVTARSLEELPVDIILASVG [COPG1]”, in the data set on HeLa Kyoto [1], the “solubility in G1/S (log2)” value was -0.169. Besides, the melting temperature with HeLa Kyoto [2] (cell cycle stage: G1/S) stood at 52 °C; with HeLa Kyoto [2] (cell cycle stage: mitosis) it was 51.5 °C. In addition, the “solubility change mitosis (log2)” value with HeLa Kyoto [3] was -0.224. Moreover, the thermal stability score in the data set on HeLa Kyoto [4] (setting [5]) is 0.468; in the data set with HeLa Kyoto [4] (cell cycle stage: mitosis), -0.737.

Regarding “MAAAGWRDGSGQEKYRLVVVGGGGVGKSALTIQFIQSYFVTDYDPTIEDSYTKQCVIDDRAARLDILDTAGQEEFGAMREQYMRTGEGFLLVFSVTDRGSFEEIYKFQRQILRVKDRDEFPMILIGNKADLDHQRQVTQEEGQQLARQLKVTYMEASAKIRMNVDQAFHELVRVIRKFQEQECPPSPEPTRKEKDKKGCHCVIF [RRAS2]”, in the data set on HeLa Kyoto [1], the “solubility in G1/S (log2)” value is -0.172. The melting temperature in the data set on HeLa Kyoto [2] (cell cycle stage: G1/S) was determined as 55.4 °C; with HeLa Kyoto [2] (cell cycle stage: mitosis) it was 55.3 °C. Besides, the “solubility change mitosis (log2)” value in the data set with HeLa Kyoto [3] was -0.0849. Also, the thermal stability score with HeLa Kyoto [4] (setting [5]) amounted to 1.24; in the data set with HeLa Kyoto [4] (cell cycle stage: mitosis), 1.12.

For the origin of these results see the supplement of paper PMC5998384.
